The record followed here is patent publication US11306156.

Read-outs that look alike come from different tables or passages of the source.

Assay [1] addresses D3H44 Fab heavy chain L124A_S186K. The experiment in a line: LCCA, L1:L2 DNA 1:3 normalised to 1:1, SPR of light chain tags; competitor m33.
Assay [2] deals with D3H44 Fab heavy chain S188L. Kind of assay: LCCA, L1:L2 DNA 1:3 normalised to 1:1, SPR of light chain tags; competitor m47.
For assay [3], the target named is D3H44 Fab heavy chain S188L. The experiment in a line: LCCA, L1:L2 DNA 1:3 normalised to 1:1, SPR of light chain tags; competitor m48.
In assay [4] the target is D3H44 Fab heavy chain S188L_V190F. Kind of assay: LCCA, L1:L2 DNA 1:3 normalised to 1:1, SPR of light chain tags; competitor m49.
For assay [5] the target is unchanged. Kind of assay: LCCA, L1:L2 DNA 1:9 normalised to 1:1, SPR of light chain tags; competitor m49.
For assay [6], the target named is D3H44 Fab heavy chain P175C_C233S. Kind of assay: LCCA, L1:L2 DNA 1:3 normalised to 1:1, SPR of light chain tags; competitor m42.
Assay [7] shares this target. The experiment in a line: LCCA, L1:L2 DNA 1:9 normalised to 1:1, SPR of light chain tags; competitor m42.
Assay [8] concerns the target D3H44 Fab heavy chain A139G_F174V_V190A. Kind of assay: LCCA, L1:L2 DNA 1:3 normalised to 1:1, SPR of light chain tags; competitor m45.
Assay [9] addresses D3H44 Fab heavy chain S188L_V190Y. Described as above.
For assay [10], the target named is D3H44 Fab heavy chain A139G_F174V_V190A. The experiment in a line: LCCA, L1:L2 DNA 1:9 normalised to 1:1, SPR of light chain tags; competitor m45.
The target of assay [11] is D3H44 Fab heavy chain S188L_V190Y. The description is as above.
The target of assay [12] is D3H44 Fab heavy chain L143E_K145T. Kind of assay: LCCA, L1:L2 DNA 1:3 normalised to 1:1, SPR of light chain tags; competitor m35.
The target of assay [13] is D3H44 Fab heavy chain L143E_K145T_S188L. Kind of assay: LCCA, L1:L2 DNA 1:3 normalised to 1:1, SPR of light chain tags; competitor m38.
The target is the same in assay [14]. Kind of assay: LCCA, L1:L2 DNA 1:3 normalised to 1:1, SPR of light chain tags; competitor m40.
The target in assay [15] is D3H44 Fab heavy chain S188G. Kind of assay: LCCA, L1:L2 DNA 1:3 normalised to 1:1, SPR of light chain tags; competitor m42.
The target in assay [16] is D3H44 Fab heavy chain S188L. The description is as above.
Assay [17] has as its target D3H44 Fab heavy chain L124A. The experiment in a line: LCCA, L1:L2 DNA 1:3 normalised to 1:1, SPR of light chain tags; competitor m50.
The target of assay [18] is D3H44 Fab heavy chain L124W_L143F. Described as above.
The target in assay [19] is D3H44 Fab heavy chain of LCCA set 6036. Described as above.
Assay [20] has as its target D3H44 Fab heavy chain L124E_K145M_Q179E. Kind of assay: LCCA, SPR of light chain tags; L1:L2 DNA 1:3 normalized to 1:1; competitor m8.
Assay [21] concerns the target D3H44 Fab heavy chain L124R_D146N_Q179K. Described as above.
Assay [22] concerns the target D3H44 Fab heavy chain L124E_L143E_K145T. The experiment in a line: LCCA, SPR of light chain tags; L1:L2 DNA 1:3 normalized to 1:1; competitor m10.
Assay [23] deals with D3H44 Fab heavy chain L124R_Q179K. The description is as above.
In assay [24] the target is D3H44 Fab heavy chain L124E_L143E_K145T. The experiment in a line: LCCA, SPR of light chain tags; L1:L2 DNA 1:9 normalized to 1:1; competitor m10.
The target in assay [25] is D3H44 Fab heavy chain L124R_Q179K. The assay is described as above.
Assay [26] deals with D3H44 Fab heavy chain L124E_L143E_K145M. The experiment in a line: LCCA, L1:L2 DNA 1:3 normalised to 1:1, SPR of light chain tags; competitor m55.
The target in assay [27] is D3H44 Fab heavy chain L124R_D146N_Q179K. The assay is described as above.
Assay [28] addresses D3H44 Fab heavy chain L124R_D146N_Q179K (H1 of LCCA sets 9358, 9359, 9357, 9351, 9352, 9353, 9354, 9350).
For assay [29] the target is unchanged. The source holds these as a separate data set.
The target in assay [30] is D3H44 Fab heavy chain L124E_L143D_K145T (H1 of LCCA sets 9214, 9217, 9216, 9219, 9220, 9225, 9228, 9229). The experiment in a line: LCCA: H1 co-expressed with L1 and L2 (DNA 333:250:749 ng), His-tag capture on SPR chip, light chain tags detected with anti-HA/anti-FLAG; competitor L1 Q124K_V133G_S176R_T178K.
Assay [31] has the same target. Kind of assay: LCCA: H1 co-expressed with L1 and L2 (DNA 333:250:749 ng), His-tag capture on SPR chip, light chain tags detected with anti-HA/anti-FLAG; competitor L1 Q124K_V133G_S176R_T178R.
The target in assay [32] is D3H44 Fab heavy chain L124E_L143E_K145M (H1 of LCCA sets 9269, 9266, 9267, 9260, 9262, 9263). The description is as above.
The target in assay [33] is D3H44 Fab heavy chain L124R_D146N_Q179K (H1 of LCCA sets 9358, 9359, 9357, 9351, 9352, 9353, 9354, 9350). The experiment in a line: LCCA: H1 co-expressed with L1 and L2 (DNA 333:250:749 ng), His-tag capture on SPR chip, light chain tags detected with anti-HA/anti-FLAG; competitor L2 Q124K_V133G_Q160K_S176R.
Assay [34] shares this target. Kind of assay: LCCA: H1 co-expressed with L1 and L2 (DNA 333:250:749 ng), His-tag capture on SPR chip, light chain tags detected with anti-HA/anti-FLAG; competitor L2 Q124K_V133G_S176R_T178K.
The target of assay [35] is D3H44 Fab heavy chain L143E_K145T_S188L. The experiment in a line: LCCA, L1:L2 DNA 1:3 normalised to 1:1, SPR of light chain tags; competitor m34.
For assay [36], the target named is D3H44 Fab heavy chain L143K. The assay is described as above.
The target in assay [37] is D3H44 Fab heavy chain F122C_C233S. Kind of assay: LCCA, L1:L2 DNA 1:3 normalised to 1:1, SPR of light chain tags; competitor m42.
For assay [38], the target named is D3H44 Fab heavy chain L143R. The experiment in a line: LCCA, L1:L2 DNA 1:3 normalised to 1:1, SPR of light chain tags; competitor m34.
Assay [39] concerns the target D3H44 Fab heavy chain L124A. The experiment in a line: LCCA, L1:L2 DNA 1:3 normalised to 1:1, SPR of light chain tags; competitor m51.
In assay [40] the target is D3H44 Fab heavy chain L124W_L143F. Described as above.
For assay [41], the target named is D3H44 Fab heavy chain of LCCA set 6036. The description is as above.
Assay [42] addresses D3H44 Fab heavy chain A139C_C233S. The experiment in a line: LCCA, L1:L2 DNA 1:3 normalised to 1:1, SPR of light chain tags; competitor m42.
For assay [43] the target is unchanged. Kind of assay: LCCA, L1:L2 DNA 1:9 normalised to 1:1, SPR of light chain tags; competitor m42.

Turning to D3H44 light chain Q124E_V133W_T180E, the H1L1:H1L2 normalized median scalar value ln(r1/f1) in assay [1] worked out at 2.54.

As to D3H44 light chain, wild type, the H2L2:H2L1 normalized median ratio in assay [2] came to 93%; in assay [3], 61%; in assay [4], 61%; in assay [5], 72%.

Take D3H44 light chain S162C_C214S: the H1L1:H1L2 normalized median scalar value ln(r1/f1) came out at 1.84 in assay [6] and 1.24 in assay [7].

For the substance D3H44 light chain V133S, the H1L1:H1L2 normalized median ratio in assay [8] is 26%; in [10] it was 11%. For the same substance, the values for the H2L2:H2L1 normalized median ratio in [9] and in [11] were 58% and 62%, respectively.

As to D3H44 light chain Q124R, the values for the H1L1:H1L2 normalized median scalar value ln(r1/f1) in assay [12], in [13] and in assay [14] were 0.71, 1.06 and 0.82, respectively.

Regarding D3H44 light chain S176L, in assay [15], the H1L1:H1L2 normalized median ratio worked out at 22% and the H1L1:H1L2 normalized median scalar value ln(r1/f1) is -1.25. For the same substance, in assay [16], the H2L2:H2L1 normalized median ratio came out at 7%.

With D3H44 light chain V133A, the H1L1:H1L2 normalized median ratio in assay [17] amounted to 59%. The H2L2:H2L1 normalized median ratio in [18] is 56%; in [19] it was 59%.

“D3H44 light chain Q124E_V133G_S176D_T178E_T180E”: the figures for the H1L1:H1L2 normalized median ratio (% of heavy chain paired) in assay [20], in [22] and in assay [24] were 6, 5 and 2, respectively. The H2L2:H2L1 normalized median ratio (% of heavy chain paired) in assay [21] turned out to be 90; in assay [23], 92; in assay [25], 84. For the same substance, the H1L1:H1L2 normalized median ratio in assay [26] came to 16%. For the same substance, in assay [27], the H2L2:H2L1 normalized median ratio came out at 84%. Moreover, the median LCCA performance normalized to a L1:L2 DNA ratio of 1:1 (ratio H1-L1:H1-L2), H1-L1 share (ratio part of 100) in assay [28] came out at 90; in [29], 89; in assay [33], 82; in assay [34], 84. Further, the median LCCA performance normalized to a L1:L2 DNA ratio of 1:1 (ratio H1-L1:H1-L2), H1-L2 share (ratio part of 100) worked out at 21 in assay [30], 17 in assay [31] and 16 in assay [32].

On to D3H44 light chain Q124E_V133D_S176L, for which the H1L1:H1L2 normalized median ratio in [35] worked out at 26%. Also, the H2L2:H2L1 normalized median ratio in assay [36] turned out to be 90%.

D3H44 light chain S121C_C214S yielded an H1L1:H1L2 normalized median scalar value ln(r1/f1) in [37] of 3.12.

For D3H44 light chain Q124E_V133E_S176L, the H1L1:H1L2 normalized median ratio in [35] is 31%. Also, the H2L2:H2L1 normalized median ratio in assay [38] was 86%.

D3H44 light chain V133W: in [39], the H1L1:H1L2 normalized median ratio turned out to be 41% and the H1L1:H1L2 normalized median scalar value ln(r1/f1) is -0.38. Moreover, in assay [40], the H2L2:H2L1 normalized median ratio came to 44%. The H2L2:H2L1 normalized median ratio in assay [41] stood at 41%.

For the substance D3H44 light chain F116C_C214S, the H1L1:H1L2 normalized median scalar value ln(r1/f1) in assay [42] is 1.37; in [43], 1.39.
